Values quoted from earlier work as cited in article PMC11949069.

Biological target: IL-18BPa (Homo sapiens) (UniProt O95998)
Sequence (O95998 31-194): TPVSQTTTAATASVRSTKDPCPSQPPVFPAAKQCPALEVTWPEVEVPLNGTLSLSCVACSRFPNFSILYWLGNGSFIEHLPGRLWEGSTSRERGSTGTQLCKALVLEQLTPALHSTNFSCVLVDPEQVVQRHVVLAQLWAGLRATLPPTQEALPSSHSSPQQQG

Chain of IL-18 (Q14116 37-193): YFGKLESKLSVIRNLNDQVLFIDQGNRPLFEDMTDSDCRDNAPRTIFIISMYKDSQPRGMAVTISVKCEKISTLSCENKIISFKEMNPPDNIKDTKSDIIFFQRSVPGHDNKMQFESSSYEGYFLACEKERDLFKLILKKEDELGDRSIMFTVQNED

IL-18 (from UniProt Q14116)
Kd: 0.4 nM
